Assay results as given in article PMC9900795 (bioRxiv, 2023).

What was measured:
Experiment in all cases: pull-down
[1] = biological target: FL-Ndel1^PM, full-length Ndel1 with the five sites phosphorylated by CDK5 mutated to aspartic acid (UniProt Q9GZM8)
[2] = biological target: NT-Ndel1, truncation of Ndel1 containing only the N-terminal coiled-coil (UniProt Q9GZM8)
[3] = biological target: Ndel1^ΔCTCC, Ndel1 with the C-terminal coiled-coil containing the purported heavy chain-binding site deleted (UniProt Q9GZM8)
[4] = biological target: FL-Ndel1^PM, full-length Ndel1 with the five sites phosphorylated by CDK5 mutated to aspartic acid (UniProt Q9GZM8); remark: listed apart in the source
[5] = biological target: T1, Lis1 (UniProt P43034 1-410)
T1 sequence: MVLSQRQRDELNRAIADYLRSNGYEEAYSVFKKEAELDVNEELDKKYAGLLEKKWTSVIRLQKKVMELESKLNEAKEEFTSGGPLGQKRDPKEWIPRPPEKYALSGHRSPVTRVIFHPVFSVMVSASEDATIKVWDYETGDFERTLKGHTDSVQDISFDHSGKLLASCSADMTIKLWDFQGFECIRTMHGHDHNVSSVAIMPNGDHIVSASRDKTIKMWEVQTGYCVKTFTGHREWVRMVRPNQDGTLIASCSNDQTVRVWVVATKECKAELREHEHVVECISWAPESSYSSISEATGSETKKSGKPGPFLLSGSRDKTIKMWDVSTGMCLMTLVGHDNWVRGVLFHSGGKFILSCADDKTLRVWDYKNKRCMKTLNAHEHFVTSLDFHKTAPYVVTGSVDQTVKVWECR

## SNAP-tagged, recombinant full-length human dynein with all associated accessory chains (from UniProt Q14204;O43237;P63172;Q9NP97;P63167) (complex)
[1]
  fold higher affinity than FL-Ndel1: 2 fold
[2]
  Kd: 79 nM
[3]
  Kd: 55 nM

B1: Lis1 (natural protein)
chain: T1 sequence
[4]
  Kd: 4 nM

B2: full-length Ndel1 (FL-Ndel1), HaloTag at the N-terminus and 6X-His tag at the C-terminus (natural protein)
chain: MDGEDIPDFSSLKEETAYWKELSLKYKQSFQEARDELVEFQEGSRELEAELEAQLVQAEQRNRDLQADNQRLKYEVEALKEKLEHQYAQSYKQVSVLEDDLSQTRAIKEQLHKYVRELEQANDDLERAKRATIVSLEDFEQRLNQAIERNAFLESELDEKESLLVSVQRLKDEARDLRQELAVRERQQEVTRKSAPSSPTLDCEKMDSAVQASLSLPATPVGKGTENTFPSPKAIPNGFGTSPLTPSARISALNIVGDLLRKVGALESKLAACRNFAKDQASRKSYISGNVNCGVLNGNGTKFSRSGHTSFFDKGAVNGFDPAPPPPGLGSSRPSSAPGMLPLSV
[5]
  Kd: ~4 nM

B3: NT-Ndel1, truncation of Ndel1 containing only the N-terminal coiled-coil (domain or fragment)
chain: MDGEDIPDFSSLKEETAYWKELSLKYKQSFQEARDELVEFQEGSRELEAELEAQLVQAEQRNRDLQADNQRLKYEVEALKEKLEHQYAQSYKQVSVLEDDLSQTRAIKEQLHKYVRELEQANDDLERAKRATIVSLEDFEQRLNQAIERNAFLESELDEKESLLVSVQRLKDEARDLRQELAVRERQQEVTR
[5]
  Kd: ~1.2 nM
